Experimental data as given in patent US10087225B2, “Formulation of MK2 inhibitor peptides” (MOERAE MATRIX, INC., priority 2015, dated 2018).

Tests used:
Assay in all cases: Kinase Profiling Assay
FGFR1(h) = FGFR1(h) (Homo sapiens, UniProt P11362); format: biochemical; settings: for % activity: 100 μM
Fms(Y969C)(h) = Fms(Y969C)(h) (Homo sapiens, UniProt P07333, Y969C); format: biochemical
Haspin(h) = molecular target: T1, Haspin(h) (Homo sapiens, UniProt Q8TF76); format: biochemical; settings: for % activity: 100 μM
T1 sequence (Q8TF76 1-798): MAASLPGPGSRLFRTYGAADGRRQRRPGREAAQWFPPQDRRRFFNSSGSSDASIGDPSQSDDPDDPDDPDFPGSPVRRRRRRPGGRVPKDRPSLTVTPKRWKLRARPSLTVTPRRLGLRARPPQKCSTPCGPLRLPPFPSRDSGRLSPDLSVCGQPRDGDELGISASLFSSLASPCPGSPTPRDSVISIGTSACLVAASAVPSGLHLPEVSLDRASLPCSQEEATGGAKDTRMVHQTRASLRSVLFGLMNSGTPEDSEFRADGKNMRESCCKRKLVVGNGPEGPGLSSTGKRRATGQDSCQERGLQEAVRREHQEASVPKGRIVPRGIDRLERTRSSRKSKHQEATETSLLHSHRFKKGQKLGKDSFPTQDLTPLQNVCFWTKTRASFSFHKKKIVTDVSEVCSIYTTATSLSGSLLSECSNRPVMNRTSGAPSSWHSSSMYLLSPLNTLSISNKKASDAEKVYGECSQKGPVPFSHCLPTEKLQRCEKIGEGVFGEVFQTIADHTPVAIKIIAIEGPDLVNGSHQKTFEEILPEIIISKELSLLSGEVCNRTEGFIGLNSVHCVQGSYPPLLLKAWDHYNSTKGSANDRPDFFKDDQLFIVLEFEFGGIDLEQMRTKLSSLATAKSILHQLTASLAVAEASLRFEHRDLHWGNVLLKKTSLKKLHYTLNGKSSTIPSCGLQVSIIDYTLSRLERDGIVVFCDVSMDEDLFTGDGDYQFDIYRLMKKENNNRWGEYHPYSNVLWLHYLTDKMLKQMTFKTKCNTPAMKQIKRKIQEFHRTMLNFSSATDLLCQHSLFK

IGF-1R(h), activated = IGF-1R(h), activated (Homo sapiens, UniProt P08069); format: biochemical; settings: for % activity: 100 μM
Rsk1(h) = Rsk1(h) (Homo sapiens, UniProt Q15418); format: biochemical
SGK(h) = molecular target: T2, SGK(h) (Homo sapiens, UniProt O00141); format: biochemical
T2 sequence (O00141 1-431): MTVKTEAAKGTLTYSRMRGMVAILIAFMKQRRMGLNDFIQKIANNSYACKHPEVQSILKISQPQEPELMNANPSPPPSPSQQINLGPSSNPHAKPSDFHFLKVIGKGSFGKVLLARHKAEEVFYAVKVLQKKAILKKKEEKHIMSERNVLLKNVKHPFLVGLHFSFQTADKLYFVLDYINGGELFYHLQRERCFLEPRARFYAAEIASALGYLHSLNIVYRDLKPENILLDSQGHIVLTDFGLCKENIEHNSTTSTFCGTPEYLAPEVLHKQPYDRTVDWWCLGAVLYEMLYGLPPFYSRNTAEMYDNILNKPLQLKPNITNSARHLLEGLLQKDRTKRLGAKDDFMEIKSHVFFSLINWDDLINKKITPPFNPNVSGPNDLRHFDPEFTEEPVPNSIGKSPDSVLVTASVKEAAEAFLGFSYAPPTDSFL

Arg(h) = Arg(h) (Homo sapiens, UniProt P42684); format: biochemical; settings: 100 μM
CaMKIIδ(h) = CaMKIIδ(h) (Homo sapiens, UniProt Q13557); format: biochemical; settings: 100 μM
DAPK2(h) = DAPK2(h) (Homo sapiens, UniProt Q9UIK4); format: biochemical; settings: 100 μM
Met(h) = Met(h) (Homo sapiens, UniProt P08581); format: biochemical; settings: 100 μM
Met(D1246N)(h) = Met(D1246N)(h) (Homo sapiens, UniProt P08581, D1228N); format: biochemical; settings: 100 μM
MLCK(h) = format: biochemical, human; settings: 100 μM
p70S6K(h) = format: biochemical, human; settings: 100 μM
PAR-1Bα(h) = PAR-1Bα(h) (Homo sapiens, UniProt Q7KZI7); format: biochemical; settings: 100 μM
PDK1(h) = molecular target: T3, PDK1(h) (Homo sapiens, UniProt O15530); format: biochemical; settings: 100 μM
T3 sequence (O15530 1-556): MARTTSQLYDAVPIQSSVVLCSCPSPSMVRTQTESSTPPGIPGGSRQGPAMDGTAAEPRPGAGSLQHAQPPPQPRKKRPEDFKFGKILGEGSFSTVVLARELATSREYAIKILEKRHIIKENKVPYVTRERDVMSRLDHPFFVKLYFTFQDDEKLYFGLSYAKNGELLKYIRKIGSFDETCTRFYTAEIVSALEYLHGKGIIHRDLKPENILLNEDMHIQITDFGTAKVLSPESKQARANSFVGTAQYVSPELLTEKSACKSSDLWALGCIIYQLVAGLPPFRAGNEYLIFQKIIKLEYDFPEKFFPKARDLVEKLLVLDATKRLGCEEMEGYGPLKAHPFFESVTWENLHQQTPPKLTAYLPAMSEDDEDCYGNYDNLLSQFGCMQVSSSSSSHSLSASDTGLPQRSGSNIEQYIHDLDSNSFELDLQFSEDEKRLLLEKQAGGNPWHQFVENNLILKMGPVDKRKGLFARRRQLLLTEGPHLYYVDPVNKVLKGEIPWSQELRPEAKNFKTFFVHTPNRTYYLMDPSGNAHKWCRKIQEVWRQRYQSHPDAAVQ

Pim-3(h) = Pim-3(h) (Homo sapiens, UniProt Q86V86); format: biochemical; settings: 100 μM
PKCγ(h) = PKCγ(h) (Homo sapiens, UniProt P05129); format: biochemical; settings: 100 μM
Pyk2(h) = Pyk2(h) (Homo sapiens, UniProt Q14289); format: biochemical; settings: 100 μM
TLK2(h) = TLK2(h) (Homo sapiens, UniProt Q86UE8); format: biochemical; settings: 100 μM
Chain of TLK2(h) (Q86UE8 whole entry): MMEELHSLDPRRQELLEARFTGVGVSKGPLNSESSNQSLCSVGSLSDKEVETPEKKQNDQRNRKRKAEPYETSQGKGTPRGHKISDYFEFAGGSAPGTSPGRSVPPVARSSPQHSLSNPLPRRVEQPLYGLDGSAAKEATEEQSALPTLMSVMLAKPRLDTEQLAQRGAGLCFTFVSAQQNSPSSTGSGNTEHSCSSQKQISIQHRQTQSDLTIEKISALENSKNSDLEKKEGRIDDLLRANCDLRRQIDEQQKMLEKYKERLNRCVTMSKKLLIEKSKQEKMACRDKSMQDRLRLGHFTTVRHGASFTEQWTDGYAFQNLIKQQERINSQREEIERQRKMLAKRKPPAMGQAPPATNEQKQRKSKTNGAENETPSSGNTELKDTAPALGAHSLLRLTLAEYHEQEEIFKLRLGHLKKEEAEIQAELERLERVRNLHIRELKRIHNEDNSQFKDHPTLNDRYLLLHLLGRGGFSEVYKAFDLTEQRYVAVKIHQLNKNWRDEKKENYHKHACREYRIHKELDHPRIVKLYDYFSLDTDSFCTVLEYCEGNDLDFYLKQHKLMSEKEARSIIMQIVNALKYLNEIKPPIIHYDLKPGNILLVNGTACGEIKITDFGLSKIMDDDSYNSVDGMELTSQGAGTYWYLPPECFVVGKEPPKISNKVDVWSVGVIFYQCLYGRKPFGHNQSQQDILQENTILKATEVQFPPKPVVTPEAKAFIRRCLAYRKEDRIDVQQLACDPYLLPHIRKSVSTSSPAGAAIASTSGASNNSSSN

Chain of FGFR1(h) (P11362 22-822): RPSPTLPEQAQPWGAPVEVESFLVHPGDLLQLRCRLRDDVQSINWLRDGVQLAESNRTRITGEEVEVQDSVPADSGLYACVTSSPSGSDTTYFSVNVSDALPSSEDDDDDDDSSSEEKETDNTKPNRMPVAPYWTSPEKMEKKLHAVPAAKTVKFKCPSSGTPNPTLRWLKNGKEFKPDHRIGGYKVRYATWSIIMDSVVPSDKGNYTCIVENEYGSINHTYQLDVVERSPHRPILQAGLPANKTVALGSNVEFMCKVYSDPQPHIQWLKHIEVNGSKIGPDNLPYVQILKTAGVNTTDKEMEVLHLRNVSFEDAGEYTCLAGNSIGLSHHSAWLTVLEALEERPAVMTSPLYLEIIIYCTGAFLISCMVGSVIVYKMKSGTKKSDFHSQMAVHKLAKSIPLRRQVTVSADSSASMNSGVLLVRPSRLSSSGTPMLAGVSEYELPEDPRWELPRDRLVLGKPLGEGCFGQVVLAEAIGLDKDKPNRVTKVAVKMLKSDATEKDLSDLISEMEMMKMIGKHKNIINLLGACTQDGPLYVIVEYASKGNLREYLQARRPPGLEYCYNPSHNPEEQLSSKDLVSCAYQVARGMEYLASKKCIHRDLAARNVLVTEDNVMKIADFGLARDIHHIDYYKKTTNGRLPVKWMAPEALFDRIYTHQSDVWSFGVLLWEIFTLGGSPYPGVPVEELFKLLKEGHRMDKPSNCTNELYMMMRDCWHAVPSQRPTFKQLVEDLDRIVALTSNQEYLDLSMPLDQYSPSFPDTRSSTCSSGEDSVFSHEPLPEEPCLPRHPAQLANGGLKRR
Chain of CaMKIIδ(h) (Q13557 whole entry): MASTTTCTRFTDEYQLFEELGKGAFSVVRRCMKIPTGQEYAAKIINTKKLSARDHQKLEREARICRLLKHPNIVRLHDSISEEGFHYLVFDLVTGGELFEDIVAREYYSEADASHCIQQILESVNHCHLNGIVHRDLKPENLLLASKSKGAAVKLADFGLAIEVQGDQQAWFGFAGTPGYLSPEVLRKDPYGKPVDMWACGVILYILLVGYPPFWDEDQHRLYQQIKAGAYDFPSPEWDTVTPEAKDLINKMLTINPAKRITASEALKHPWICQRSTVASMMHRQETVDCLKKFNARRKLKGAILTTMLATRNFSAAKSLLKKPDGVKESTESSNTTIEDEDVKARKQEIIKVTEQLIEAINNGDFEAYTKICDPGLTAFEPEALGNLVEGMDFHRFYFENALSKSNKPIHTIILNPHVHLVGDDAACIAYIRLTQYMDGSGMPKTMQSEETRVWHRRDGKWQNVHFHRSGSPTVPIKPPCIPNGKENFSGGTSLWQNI
Chain of Pyk2(h) (Q14289 whole entry): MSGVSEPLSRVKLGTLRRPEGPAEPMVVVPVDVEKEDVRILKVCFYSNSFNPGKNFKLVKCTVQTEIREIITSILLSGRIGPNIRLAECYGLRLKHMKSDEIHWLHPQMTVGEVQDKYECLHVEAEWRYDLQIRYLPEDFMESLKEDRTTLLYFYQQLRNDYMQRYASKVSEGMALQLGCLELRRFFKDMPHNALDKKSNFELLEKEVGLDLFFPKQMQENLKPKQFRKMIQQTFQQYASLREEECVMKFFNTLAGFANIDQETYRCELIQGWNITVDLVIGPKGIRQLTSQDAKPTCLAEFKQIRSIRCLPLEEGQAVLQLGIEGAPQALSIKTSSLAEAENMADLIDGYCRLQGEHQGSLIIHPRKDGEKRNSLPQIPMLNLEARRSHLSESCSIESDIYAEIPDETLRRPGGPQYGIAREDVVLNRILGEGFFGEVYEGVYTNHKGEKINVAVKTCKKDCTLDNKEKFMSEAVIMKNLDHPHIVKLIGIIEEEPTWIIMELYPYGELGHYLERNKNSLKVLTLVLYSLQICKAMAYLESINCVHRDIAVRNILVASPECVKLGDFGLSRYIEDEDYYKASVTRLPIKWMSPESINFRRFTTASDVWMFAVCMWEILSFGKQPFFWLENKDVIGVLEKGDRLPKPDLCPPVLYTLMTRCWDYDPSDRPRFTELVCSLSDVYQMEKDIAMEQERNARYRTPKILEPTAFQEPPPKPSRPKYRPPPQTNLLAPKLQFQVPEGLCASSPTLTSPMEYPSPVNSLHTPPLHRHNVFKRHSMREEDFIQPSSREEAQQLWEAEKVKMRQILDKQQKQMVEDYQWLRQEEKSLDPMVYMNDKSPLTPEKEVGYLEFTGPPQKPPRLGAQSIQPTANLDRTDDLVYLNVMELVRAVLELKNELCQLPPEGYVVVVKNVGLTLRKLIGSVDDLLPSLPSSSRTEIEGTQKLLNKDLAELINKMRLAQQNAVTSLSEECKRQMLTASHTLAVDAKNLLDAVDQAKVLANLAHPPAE
Chain of Arg(h) (P42684 whole entry): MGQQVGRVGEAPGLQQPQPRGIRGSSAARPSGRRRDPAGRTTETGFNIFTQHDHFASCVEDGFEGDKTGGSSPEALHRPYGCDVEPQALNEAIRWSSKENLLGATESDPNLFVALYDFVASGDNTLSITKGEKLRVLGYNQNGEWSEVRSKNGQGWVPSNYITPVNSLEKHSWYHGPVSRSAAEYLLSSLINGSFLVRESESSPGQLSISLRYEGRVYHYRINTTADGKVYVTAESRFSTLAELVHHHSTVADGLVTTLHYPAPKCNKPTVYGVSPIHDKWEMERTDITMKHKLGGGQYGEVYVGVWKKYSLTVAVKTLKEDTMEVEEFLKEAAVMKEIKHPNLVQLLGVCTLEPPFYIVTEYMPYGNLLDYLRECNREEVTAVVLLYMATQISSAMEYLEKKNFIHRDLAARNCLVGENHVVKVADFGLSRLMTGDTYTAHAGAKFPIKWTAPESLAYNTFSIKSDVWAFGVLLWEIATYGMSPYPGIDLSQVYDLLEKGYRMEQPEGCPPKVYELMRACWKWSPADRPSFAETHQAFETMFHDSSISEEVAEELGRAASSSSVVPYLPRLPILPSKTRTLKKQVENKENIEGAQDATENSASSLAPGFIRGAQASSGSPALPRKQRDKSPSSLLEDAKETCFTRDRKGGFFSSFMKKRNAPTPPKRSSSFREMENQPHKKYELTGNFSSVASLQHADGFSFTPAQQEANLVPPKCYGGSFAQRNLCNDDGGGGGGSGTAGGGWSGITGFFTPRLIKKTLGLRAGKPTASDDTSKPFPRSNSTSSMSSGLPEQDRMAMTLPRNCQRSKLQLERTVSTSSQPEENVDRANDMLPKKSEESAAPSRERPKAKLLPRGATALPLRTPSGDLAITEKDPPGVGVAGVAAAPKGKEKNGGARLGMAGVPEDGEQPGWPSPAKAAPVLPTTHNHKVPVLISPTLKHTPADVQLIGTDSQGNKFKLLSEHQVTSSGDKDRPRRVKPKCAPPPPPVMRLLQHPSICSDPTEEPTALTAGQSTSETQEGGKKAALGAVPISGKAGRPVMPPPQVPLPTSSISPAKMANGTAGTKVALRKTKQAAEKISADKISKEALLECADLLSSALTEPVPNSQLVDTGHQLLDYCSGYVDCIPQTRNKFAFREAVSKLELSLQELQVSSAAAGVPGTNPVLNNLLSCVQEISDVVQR
Chain of DAPK2(h) (Q9UIK4 whole entry): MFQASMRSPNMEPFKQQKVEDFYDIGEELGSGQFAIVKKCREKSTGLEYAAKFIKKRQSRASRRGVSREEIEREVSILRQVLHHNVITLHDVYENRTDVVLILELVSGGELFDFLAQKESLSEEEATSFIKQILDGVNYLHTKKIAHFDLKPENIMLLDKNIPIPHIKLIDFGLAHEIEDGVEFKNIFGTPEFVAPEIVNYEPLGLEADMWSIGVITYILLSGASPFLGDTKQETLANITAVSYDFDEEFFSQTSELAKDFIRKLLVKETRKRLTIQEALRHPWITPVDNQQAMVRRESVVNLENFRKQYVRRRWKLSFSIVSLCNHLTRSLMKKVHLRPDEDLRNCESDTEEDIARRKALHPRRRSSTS

Substance | % activity (Arg(h)) [%] | % activity (CaMKIIδ(h)) [%] | % activity (DAPK2(h)) [%] | % activity (FGFR1(h)) [%] | % activity (Haspin(h)) [%] | % activity (IGF-1R(h), activated) [%] | % activity (Met(h)) [%] | % activity (Met(D1246N)(h)) [%] | % activity (MLCK(h)) [%] | % activity (p70S6K(h)) [%] | % activity (PAR-1Bα(h)) [%] | % activity (PDK1(h)) [%] | % activity (Pim-3(h)) [%] | % activity (PKCγ(h)) [%] | % activity (Pyk2(h)) [%] | % activity (TLK2(h)) [%] | other results
H-YARAAARQARAKALARQLGVAA-OH [MMI-0100] |  |  |  |  |  |  |  |  |  |  |  |  |  |  |  |  | activity at 100 µM (FGFR1(h)): 120%; activity at 100 µM (Fms(Y969C)(h)): 126%; activity at 100 µM (Haspin(h)): 127%; activity at 100 µM (IGF-1R(h), activated): 126%; activity at 100 µM (Rsk1(h)): 86%; activity at 100 µM (SGK(h)): 128%
HRRIKAWLKKIKALARQLGVAA (Mammalian) [MMI-0500] | 22 | 1 | 3 | 18 | 25 | 45 | 27 | 90 | 0 | 3 | 97 | 178 | 37 | 6 | 46 | 133 | % activity (Rsk1(h); 100 μM): 34%; % activity (SGK(h); 100 μM): 2%
YARAAARQARAKALNRQLGVA (Mammalian) [MMI-0200] | 82 | 2 | 92 | 97 | 71 | 94 | 71 | 149 | 103 | 84 | 110 | 143 | 94 | 101 | 127 | 129 | % activity (Fms(Y969C)(h); 100 μM): 88%
